In patent publication US20190382504A1 (EUREKA THERAPEUTICS, published 2019):
Substitutions are numbered along the chain they refer to.

B1: ESO157 BsAb #116 (anti-ESO157/HLA-A*02:01 scFv x anti-human CD3epsilon scFv, single chain) (bispecific antibody)
chain: QSVLTQPPSVSAAPGQKVTISCSGSSSNIGNNYVSWYQQLPGTAPKLLIYDNNKRPSGIPDRFSGSKSGTSATLGITGLQTGDEADYYCGTWDSSLSAEVFGTGTKVTVLGSRGGGGSGGGGSGGGGSLEMAQVQLVQSGPEVKKPGASMKVSCKASGYTFTKYGISWVRQAPGQGLEWMGWISADSGKTSYAQNLQGRVSLTIDTSTATAYMELRSLRSDDTAVYYCARDDDSWGQGTLVTVSS
B2: phage clone #35, anti-ESO157/HLA-A*02:01 scFv displayed on phage (scFv, V domains shown)
VH: QVQLVQSGAEVKKPGSSVKVSCKASGDTFSSYSISWVRQAPGQGLEWMGRIIPILGIANYAQKYQGRVTLSADKSTSTSYMELNSLRSEDTAVYYCARDWSYSIDYWGQGTLVTVSS
VL: QSVVTQPPSVSAAPGQKVTISCSGSSSNIGNNYVSWYQQLPGTAPKLLIYDNNKRPSGIPDRFSGSKSGTSATLGITGLQTGDEADYYCGTWDSSLSAWVFGGGTKLTVLG
notes: also called parental phage clone #35
B3: phage clone 35-12, affinity maturation variant of clone #35 (scFv, V domains shown)
VH: B2 VH with Q3P, K19R, S31N
VL: B2 VL with A72T
B4: phage clone 35-8, affinity maturation variant of clone #35 (scFv, V domains shown)
VH: B2 VH with Q3P, S33Y, S85N
VL: QSVVTQPPSVSAAPGQKVTISCSGSSSNIGNNYVSWYQQLPGTAPKLLIYDNNKRPSGIPDRFSGSKSGTSATLGITGLQTGDEADYYCGTWDSSLSAWVFGGGTKLTVL
B5: phage clone 35-3, affinity maturation variant of clone #35 (scFv, V domains shown)
VH: B2 VH with S33Y, D99E
VL: B2 VL with Q80R
B6: phage clone 35-19, affinity maturation variant of clone #35 (scFv, V domains shown)
VH: B2 VH with V2E, S33Y
VL: B2 VL with S26I, K54M
notes: also called variant 35-19
B7: phage clone 35-2, affinity maturation variant of clone #35 (scFv, V domains shown)
VH: B2 VH with S33Y
VL: B2 VL with K54E
B8: phage clone 35-14, affinity maturation variant of clone #35 (scFv, V domains shown)
VH: B2 VH with S33Y, D99E
VL: B4 VL with K46E
B9: phage clone 35-20, affinity maturation variant of clone #35 (scFv, V domains shown)
VH: B2 VH with Q3H, S33Y
VL: B4 VL
B10: phage clone 35-15, affinity maturation variant of clone #35 (scFv, V domains shown)
VH: B2 VH with S33Y, R87S, R98L
VL: B2 VL with G65A, G82R
B11: phage clone 35-16, affinity maturation variant of clone #35 (scFv, V domains shown)
VH: B2 VH with G26E, S33Y, I54T
VL: B2 VL with D61G
B12: phage clone #52, anti-ESO157/HLA-A*02:01 scFv displayed on phage (scFv, V domains shown)
VH: QVQLVQSGAEVKKPGASVKVSCKASGYTFTSYGISWVRQAPGQGLEWMGWISAYNGNTNYAQKLQGRVTMTTDTSTSTAYMELRSLRSDDTAVYYCARYSGYYAGDSWGQGTLVTVSS
VL: QSVLTQPPSVSGAPGQRVTISCTGSSSNIGAGYDVHWYQQLPGTAPKLLIYGDTNRPSGVPDRISGSKSGTSASLAITGLQAEDEADYYCQSYDSNLYTYVFGTGTKVTVLG
B13: phage clone #66, anti-ESO157/HLA-A*02:01 scFv displayed on phage (scFv, V domains shown)
VH: EVQLVESGAEVKRPGASVKVSCKASGYTFTSYGISWVRQAPGQGLEWMGRFIPNLNKGNSAHKFEGRVSFTADKFTNTAYMELRGLKSDDTAVYYCARGDYGSDQWGQGTLVTVSS
VL: QSVLTQPPSVSGAPGQRVTISCTGSSSNIGAGYDVHWYQQLPGTAPKLLIYGNSNRPSGVPDRFSGSKSGTSASLAITGLQAEDEADYYCQSYDSSLSGSWVFGGGTKLTVLG
B14: phage clone #76, anti-ESO157/HLA-A*02:01 scFv displayed on phage (scFv, V domains shown)
VH: EVQLVQSGAEVKKPGSSVKVSCKASGGTFSSYAISWVRQAPGQGLEWMGGIIPIFGTANYAQKFQGRVTITADESTSTAYMELSSLRSEDTAVYYCARYDSYVYDEWGQGTLVTVSS
VL: B13 VL with L4V, V10L, T23N, S26G, S100W, W101G, V102I
B15: phage clone #146, anti-ESO157/HLA-A*02:01 scFv displayed on phage (scFv, V domains shown)
VH: EVQLVQSGAEVKKPGASVKVSCKVSGYTLTDLPMHWVRQAPGKGLEWMGGFDPEDGEIIYAQKFQGRVTMTEDTFTDTAYVELSSLRSEDTAVYYCARYVPYVSYSDSWGQGTLVTVSS
VL: not shown
B16: phage clone #148, anti-ESO157/HLA-A*02:01 scFv displayed on phage (scFv, V domains shown)
VH: EVQLVQSGAEVKKPGASVKVSCKASGGTFSSYAISWVRQAPGQGLEWMGGIIPIFGTANYAQKFQGRVTITADKSTSTAYMELSSLRSEDTAVYYCARSYWSWTPYDPWGQGTLVTVSS
VL: LPVLTQPPSVSVAPGKTARITCGGNNIGSKSVHWYQQKPGQAPVLVIYYDSDRPSGIPERFSGSNSGNTATLTISRVEAGDEADYYCQVWDSSSDHYVFGTGTKVTVLG

target: biotinylated recombinant ESO157/HLA-A*02:06 complex (human); assay: BLI (Octet QK), biotinylated pMHC on streptavidin sensor, BsAb 10 ug/mL

Row | Binder | Kd [nM]
1 | B1 | 0.8

target: biotinylated recombinant ESO157/HLA-A*02:02 complex (human); assay: as above

Row | Binder | Kd [nM]
2 | B1 | 1.8

target: T1, ESO157 homolog 2 peptide (…)/HLA-A*02:01 on T2 cells (human); assay: FACS, phage on T2 cells, 50 ug/ml peptide;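 note: binding of phage clones to peptide/MHC complexes detected by flow cytometry after staining with an anti-M13 antibody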
T1 construct: also called ESO157 H2

Row | Binder | MFI
3 | B2 | 17.6
4 | B3 | 19.2
5 | B4 | 18.7
6 | B5 | 18.4
7 | B6 | 21.9
8 | B7 | 20.8
9 | B8 | 19.8

target: T2, ESO157 homolog 1 peptide (…)/HLA-A*02:01 on T2 cells (human); assay: FACS, phage on T2 cells, 50 ug/ml peptide;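 note: binding of phage clones to peptide/MHC complexes detected by flow cytometry after staining with an anti-M13 antibody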
T2 construct: also called ESO157 H1

Row | Binder | MFI
10 | B9 | 21
11 | B3 | 19.3
12 | B5 | 18.8
13 | B6 | 20.7
14 | B10 | 36.2
15 | B8 | 20.8

target: T3, ESO157 homolog 4 peptide (…)/HLA-A*02:01 on T2 cells (human); assay: FACS, phage on T2 cells, 50 ug/ml peptide;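 note: binding of phage clones to peptide/MHC complexes detected by flow cytometry after staining with an anti-M13 antibody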
T3 construct: also called ESO157 H4

Row | Binder | MFI
16 | B9 | 20.6
17 | B11 | 19.3
18 | B3 | 18.7
19 | B4 | 19.6
20 | B5 | 19
21 | B6 | 21.6
22 | B7 | 21
23 | B10 | 33.8
24 | B8 | 19.5

target: T4, ESO157 homolog 3 peptide (…)/HLA-A*02:01 on T2 cells (human); assay: FACS, phage on T2 cells, 50 ug/ml peptide;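 note: binding of phage clones to peptide/MHC complexes detected by flow cytometry after staining with an anti-M13 antibody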
T4 construct: also called ESO157 H3

Row | Binder | MFI
25 | B9 | 20.8
26 | B11 | 18.7
27 | B3 | 18.6
28 | B5 | 18.9
29 | B6 | 21.7
30 | B10 | 35.4
31 | B8 | 20

target: T5, ESO157 homolog 5 peptide (…)/HLA-A*02:01 on T2 cells (human); assay: FACS, phage on T2 cells, 50 ug/ml peptide
T5 construct: also called ESO157 H5

Row | Binder | MFI
32 | B2 | 13.4
33 | B9 | 19
34 | B11 | 18.7
35 | B3 | 17.7
36 | B4 | 17.8
37 | B5 | 18.5
38 | B6 | 60.2
39 | B7 | 18.8
40 | B10 | 31.8
41 | B8 | 18.8

target: ESO157 A7 peptide (…)/HLA-A*02:01 complex on T2 cells (human); assay: FACS, peptide-pulsed T2 cells

Row | Binder | MFI
42 | B2 | 419
43 | B12 | 9890
44 | B13 | 64400
45 | B14 | 6200
46 | B15 | 333
47 | B16 | 62400

target: ESO157 A6 peptide (…)/HLA-A*02:01 complex on T2 cells (human); assay: FACS, peptide-pulsed T2 cells

Row | Binder | MFI
48 | B12 | 1880
49 | B13 | 19800
50 | B16 | 17500

target: ESO157 A8 peptide (…)/HLA-A*02:01 complex on T2 cells (human); assay: FACS, peptide-pulsed T2 cells

Row | Binder | MFI
51 | B12 | 19200
52 | B13 | 90500
53 | B14 | 12700
54 | B15 | 18600
55 | B16 | 58300

target: T6, ESO157 wild type peptide (…)/HLA-A*02:01 complex on cells (human); assay: FACS, peptide-pulsed T2 cells
T6 construct: also called ESO157-loaded T2 cells

Row | Binder | MFI
56 | B2 | 17500
57 | B12 | 14500
58 | B13 | 67000
59 | B14 | 7460

target: ESO157 A1 peptide (…)/HLA-A*02:01 complex on T2 cells (human); assay: FACS, peptide-pulsed T2 cells

Row | Binder | MFI
60 | B2 | 42400
61 | B12 | 14900
62 | B13 | 82400
63 | B14 | 14600
64 | B15 | 9300
65 | B16 | 27700

target: ESO157 A4 peptide (…)/HLA-A*02:01 complex on T2 cells (human); assay: FACS, peptide-pulsed T2 cells

Row | Binder | MFI
66 | B2 | 155
67 | B12 | 4740
68 | B13 | 48100
69 | B14 | 191
70 | B15 | 3200
71 | B16 | 240

target: ESO157 A5 peptide (…)/HLA-A*02:01 complex on T2 cells (human); assay: FACS, peptide-pulsed T2 cells

Row | Binder | MFI
72 | B2 | 163
73 | B12 | 107
74 | B13 | 748
75 | B14 | 160
76 | B15 | 180
77 | B16 | 14200

target: T7, HLA-A*02:01 on T2 cells without peptide loading (human); assay: FACS, peptide-pulsed T2 cells
T7 construct: TAP-deficient T2 cells, no peptide added; also called No peptide; T2 cells with no peptide loaded

Row | Binder | MFI
78 | B12 | 113
79 | B13 | 157
80 | B14 | 131
81 | B15 | 132
82 | B16 | 208

target: ESO157 A3 peptide (…)/HLA-A*02:01 complex on T2 cells (human); assay: FACS, peptide-pulsed T2 cells

Row | Binder | MFI
83 | B2 | 10200
84 | B12 | 17700
85 | B13 | 38400
86 | B14 | 42900
87 | B15 | 181
88 | B16 | 52900

target: T8, Bio-C9V mutant; assay: phage ELISA: streptavidin plate coated with biotinylated peptide/HLA-A*02:01 monomer, phage detected with HRP-conjugated anti-M13 antibody, absorbance at 450 nm
T8 construct: also called biotinylated ESO157 C9V/HLA-A*02:01 complex monomer

Row | Binder | binding result
89 | B12 | binds
90 | B13 | binds
91 | B14 | binds
92 | B15 | binds
93 | B16 | binds
